These are literature values, as cited in article PMC11677424, “Early-Stage IM Treatment with the Host-Derived Immunostimulant CPDI-02 Increases Curative Protection of Healthy Outbred Mice Against Subcutaneous Infection with Community-Acquired Methicillin-Resistant Staphylococcus aureus USA300” (Pharmaceutics, 2024).

Data set [1] concerns primary human neutrophils (NPs). Particulars: cited from earlier work. The text has this: (§1) Complement Peptide-Derived Immunostimulant-02 (CPDI-02) (formerly EP67) is a novel, second-generation host-derived decapeptide agonist of […] (C5) Receptor 1 (C5aR1/C5a1R/CD88), which is based on the C-terminal pharmacophore of human Complement Peptide C5a (hC5a).
The test system of data set [2] is primary human mononuclear phagocytes (MPs). Particulars: primary human MPs; cited from earlier work.
Description: as §1

B1: hC5a: human Complement Peptide C5a, the parent molecule of CPDI-02 (protein, UniProt P01031 678-751, looked up)
C5a anaphylatoxin: TLQKKIEEIAAKYKHSVVKKCCYDGACVNNDETCEQRAARISLGPRCIKAFTECCVVASQLRANISHKDMQLGR
modifications: C5a anaphylatoxin
Broadly, the EC50 is the midpoint of the concentration-response curve. Take B1: the EC50 in data set [1] and in data set [2] was about 7 nM in each case.
